# ± gives the uncertainty stated by the source.
# B1: Intersectin-1, residues 1156 to 1213; numbered along this chain, Q15811 (parent)
# chain: AVCQVIGMYDYTAQNDDELAFNKGQIINVLNKEDPDWWKGEVNGQVGLFPSNYVKLTT
# Variants of: B1
# Assay: abundance fitness (aPCA) (normalised: wild type 0, dead -1); higher = more abundant; growth selection in yeast, the domain comes from the species named
# Details: Homo sapiens
row,Variant,abundance fitness
1,AVCQVIGMYFYTAQNDDELAFNKGQIINVLNKEDPDWWKGEVNGQVGLFPSNYVKLTT [D10F],-1.01 ± 0.44
2,AVCQVIGMYNYTAQNDDELAFNKGQIINVLNKEDPDWWKGEVNGQVGLFPSNYVKLTT [D10N],-0.227 ± 0.098
3,AVCQVIGMYPYTAQNDDELAFNKGQIINVLNKEDPDWWKGEVNGQVGLFPSNYVKLTT [D10P],-0.246 ± 0.15
4,AVCQVIGMYWYTAQNDDELAFNKGQIINVLNKEDPDWWKGEVNGQVGLFPSNYVKLTT [D10W],-0.507 ± 0.22
5,AVCQVIGMYYYTAQNDDELAFNKGQIINVLNKEDPDWWKGEVNGQVGLFPSNYVKLTT [D10Y],-0.838 ± 0.37
6,AVCQVIGMYGYTAQNDDELAFNKGQIINVLNKEDPDWWKGEVNGQVGLFPSNYVKLTT [D10G],-0.59 ± 0.1
7,AVCQVIGMYIYTAQNDDELAFNKGQIINVLNKEDPDWWKGEVNGQVGLFPSNYVKLTT [D10I],-0.919 ± 0.24
8,AVCQVIGMYLYTAQNDDELAFNKGQIINVLNKEDPDWWKGEVNGQVGLFPSNYVKLTT [D10L],-0.724 ± 0.16
9,AVCQVIGMYVYTAQNDDELAFNKGQIINVLNKEDPDWWKGEVNGQVGLFPSNYVKLTT [D10V],-0.661 ± 0.14
10,AVCQVIGMYRYTAQNDDELAFNKGQIINVLNKEDPDWWKGEVNGQVGLFPSNYVKLTT [D10R],-0.335 ± 0.1
11,AVCQVIGMYHYTAQNDDELAFNKGQIINVLNKEDPDWWKGEVNGQVGLFPSNYVKLTT [D10H],-0.262 ± 0.31
12,AVCQVIGMYAYTAQNDDELAFNKGQIINVLNKEDPDWWKGEVNGQVGLFPSNYVKLTT [D10A],-0.217 ± 0.1
13,AVCQVIGMYCYTAQNDDELAFNKGQIINVLNKEDPDWWKGEVNGQVGLFPSNYVKLTT [D10C],-0.472 ± 0.16
14,AVCQVIGMYQYTAQNDDELAFNKGQIINVLNKEDPDWWKGEVNGQVGLFPSNYVKLTT [D10Q],-0.625 ± 0.23
15,AVCQVIGMYSYTAQNDDELAFNKGQIINVLNKEDPDWWKGEVNGQVGLFPSNYVKLTT [D10S],-0.093 ± 0.13
16,AVCQVIGMYMYTAQNDDELAFNKGQIINVLNKEDPDWWKGEVNGQVGLFPSNYVKLTT [D10M],0.001 ± 0.31
17,AVCQVIGMYDYTRQNDDELAFNKGQIINVLNKEDPDWWKGEVNGQVGLFPSNYVKLTT [A13R],-0.451 ± 0.089
18,AVCQVIGMYDYTSQNDDELAFNKGQIINVLNKEDPDWWKGEVNGQVGLFPSNYVKLTT [A13S],-0.455 ± 0.1
19,AVCQVIGMYDYTPQNDDELAFNKGQIINVLNKEDPDWWKGEVNGQVGLFPSNYVKLTT [A13P],-0.059 ± 0.1
20,AVCQVIGMYDYTWQNDDELAFNKGQIINVLNKEDPDWWKGEVNGQVGLFPSNYVKLTT [A13W],-0.746 ± 0.14
21,AVCQVIGMYDYTDQNDDELAFNKGQIINVLNKEDPDWWKGEVNGQVGLFPSNYVKLTT [A13D],-0.944 ± 0.24
22,AVCQVIGMYDYTCQNDDELAFNKGQIINVLNKEDPDWWKGEVNGQVGLFPSNYVKLTT [A13C],-0.76 ± 0.21
23,AVCQVIGMYDYTTQNDDELAFNKGQIINVLNKEDPDWWKGEVNGQVGLFPSNYVKLTT [A13T],-0.336 ± 0.11

row,Variant,abundance fitness
1,AVCQVIGMYDYTLQNDDELAFNKGQIINVLNKEDPDWWKGEVNGQVGLFPSNYVKLTT [A13L],-0.903 ± 0.13
2,AVCQVIGMYDYTVQNDDELAFNKGQIINVLNKEDPDWWKGEVNGQVGLFPSNYVKLTT [A13V],-0.832 ± 0.11
3,AVCQVIGMYDYTIQNDDELAFNKGQIINVLNKEDPDWWKGEVNGQVGLFPSNYVKLTT [A13I],-0.735 ± 0.26
4,AVCQVIGMYDYTEQNDDELAFNKGQIINVLNKEDPDWWKGEVNGQVGLFPSNYVKLTT [A13E],-0.822 ± 0.16
5,AVCQVIGMYDYTQQNDDELAFNKGQIINVLNKEDPDWWKGEVNGQVGLFPSNYVKLTT [A13Q],-0.676 ± 0.14
6,AVCQVIGMYDYTMQNDDELAFNKGQIINVLNKEDPDWWKGEVNGQVGLFPSNYVKLTT [A13M],-0.853 ± 0.18
7,AVCQVIGMYDYTNQNDDELAFNKGQIINVLNKEDPDWWKGEVNGQVGLFPSNYVKLTT [A13N],-0.839 ± 0.26
8,AVCQVIGMYDYTYQNDDELAFNKGQIINVLNKEDPDWWKGEVNGQVGLFPSNYVKLTT [A13Y],-0.574 ± 0.2
9,AVCQVIGMYDYTFQNDDELAFNKGQIINVLNKEDPDWWKGEVNGQVGLFPSNYVKLTT [A13F],-0.592 ± 0.34
10,AVCQVIGMYDVTAQNDDELAFNKGQIINVLNKEDPDWWKGEVNGQVGLFPSNYVKLTT [Y11V],-0.765 ± 0.12
11,AVCQVIGMYDKTAQNDDELAFNKGQIINVLNKEDPDWWKGEVNGQVGLFPSNYVKLTT [Y11K],-0.879 ± 0.23
12,AVCQVIGMYDETAQNDDELAFNKGQIINVLNKEDPDWWKGEVNGQVGLFPSNYVKLTT [Y11E],-0.809 ± 0.21
13,AVCQVIGMYDCTAQNDDELAFNKGQIINVLNKEDPDWWKGEVNGQVGLFPSNYVKLTT [Y11C],-0.509 ± 0.17
14,AVCQVIGMYDRTAQNDDELAFNKGQIINVLNKEDPDWWKGEVNGQVGLFPSNYVKLTT [Y11R],-0.374 ± 0.084
15,AVCQVIGMYDGTAQNDDELAFNKGQIINVLNKEDPDWWKGEVNGQVGLFPSNYVKLTT [Y11G],-0.655 ± 0.097
16,AVCQVIGMYDWTAQNDDELAFNKGQIINVLNKEDPDWWKGEVNGQVGLFPSNYVKLTT [Y11W],-0.932 ± 0.17
17,AVCQVIGMYDMTAQNDDELAFNKGQIINVLNKEDPDWWKGEVNGQVGLFPSNYVKLTT [Y11M],-0.698 ± 0.18
18,AVCQVIGMYDITAQNDDELAFNKGQIINVLNKEDPDWWKGEVNGQVGLFPSNYVKLTT [Y11I],-0.563 ± 0.2
19,AVCQVIGMYDNTAQNDDELAFNKGQIINVLNKEDPDWWKGEVNGQVGLFPSNYVKLTT [Y11N],-0.937 ± 0.29
20,AVCQVIGMYDTTAQNDDELAFNKGQIINVLNKEDPDWWKGEVNGQVGLFPSNYVKLTT [Y11T],-0.555 ± 0.19
21,AVCQVIGMYDFTAQNDDELAFNKGQIINVLNKEDPDWWKGEVNGQVGLFPSNYVKLTT [Y11F],-0.271 ± 0.2
22,AVCQVIGMYDSTAQNDDELAFNKGQIINVLNKEDPDWWKGEVNGQVGLFPSNYVKLTT [Y11S],-0.769 ± 0.13

# Source: the Human Domainome abundance scans (Beltran et al. 2025)
